Measurements from patent US20060206948A1 (UNIVERSITY OF PITTSBURGH OF THE COMMONWEALTH SYSTEM OF …, published 2006).

Key:
[1] = target: long-form human leptin receptor, OB-Rb (human) (UniProt P48357); assay: binding of labelled leptin to HEK293 cells stably transfected with human OB-Rb
[2] = target: T1, human leptin (SEQ ID NO:4) (human, UniProt P41159 22-167); assay: human CRP pre-incubated with 125I-human leptin (~2 ng/ml); inhibition of leptin binding to OB-Rb HEK293 cells, scintillation counting
T1 construct: Recombinant human leptin; also called recombinant human leptin
Description: (§1) 4. […] After 10 minute incubation at room temperature, the reaction was stopped with 100 μl 0.1% trifluoroacetic acid (TFA). The reaction mixture was immediately purified by reverse-phase HPLC. The separation employed a 5 minute isocratic step at 20% eluant B in A, followed by two consecutive 30 minute linear gradients from 20 to 50%, then from 50 to 60% eluant B in A (where eluant A is water containing 0. 1% TFA and eluant B is acetonitrile containing 0.1% TFA) at a flow rate of 1.5 ml/min. […] The incubation would last for 3 hours at 4° C. before the media was aspirated and the cells were dissolved in 0.1N NaOH for scintillation counting.

[3] = target: T1, human leptin (SEQ ID NO:4); assay: derived from the IC50 of CRP against 125I-human leptin binding to OB-Rb HEK293 cells
Description: as §1

[4] = target: T2, mouse leptin (mouse), P41160; assay: human CRP against mouse leptin (~2 ng/ml) binding to OB-Rb HEK293 cells (FIG. 3G); conditions: remark: other sources report otherwise
T2 chain: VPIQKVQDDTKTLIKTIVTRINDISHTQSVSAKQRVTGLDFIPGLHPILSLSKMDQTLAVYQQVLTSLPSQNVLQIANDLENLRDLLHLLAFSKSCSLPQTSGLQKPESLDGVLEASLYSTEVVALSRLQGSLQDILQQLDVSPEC

rat C-reactive protein = target: T3, rat C-reactive protein (rat, UniProt P48199 20-230); assay: immunoprecipitation with anti-mouse leptin, western blot with anti-CRP
T3 construct: also called rat CRP; rat SLIP-1
T3 sequence (looked up): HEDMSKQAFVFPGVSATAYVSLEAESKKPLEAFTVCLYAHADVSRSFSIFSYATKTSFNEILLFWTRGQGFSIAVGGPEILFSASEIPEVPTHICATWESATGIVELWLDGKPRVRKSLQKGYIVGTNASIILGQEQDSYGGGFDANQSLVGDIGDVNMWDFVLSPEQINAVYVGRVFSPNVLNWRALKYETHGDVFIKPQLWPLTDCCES

long-form human leptin receptor, OB-Rb (human), sequence (P48357 22-1165): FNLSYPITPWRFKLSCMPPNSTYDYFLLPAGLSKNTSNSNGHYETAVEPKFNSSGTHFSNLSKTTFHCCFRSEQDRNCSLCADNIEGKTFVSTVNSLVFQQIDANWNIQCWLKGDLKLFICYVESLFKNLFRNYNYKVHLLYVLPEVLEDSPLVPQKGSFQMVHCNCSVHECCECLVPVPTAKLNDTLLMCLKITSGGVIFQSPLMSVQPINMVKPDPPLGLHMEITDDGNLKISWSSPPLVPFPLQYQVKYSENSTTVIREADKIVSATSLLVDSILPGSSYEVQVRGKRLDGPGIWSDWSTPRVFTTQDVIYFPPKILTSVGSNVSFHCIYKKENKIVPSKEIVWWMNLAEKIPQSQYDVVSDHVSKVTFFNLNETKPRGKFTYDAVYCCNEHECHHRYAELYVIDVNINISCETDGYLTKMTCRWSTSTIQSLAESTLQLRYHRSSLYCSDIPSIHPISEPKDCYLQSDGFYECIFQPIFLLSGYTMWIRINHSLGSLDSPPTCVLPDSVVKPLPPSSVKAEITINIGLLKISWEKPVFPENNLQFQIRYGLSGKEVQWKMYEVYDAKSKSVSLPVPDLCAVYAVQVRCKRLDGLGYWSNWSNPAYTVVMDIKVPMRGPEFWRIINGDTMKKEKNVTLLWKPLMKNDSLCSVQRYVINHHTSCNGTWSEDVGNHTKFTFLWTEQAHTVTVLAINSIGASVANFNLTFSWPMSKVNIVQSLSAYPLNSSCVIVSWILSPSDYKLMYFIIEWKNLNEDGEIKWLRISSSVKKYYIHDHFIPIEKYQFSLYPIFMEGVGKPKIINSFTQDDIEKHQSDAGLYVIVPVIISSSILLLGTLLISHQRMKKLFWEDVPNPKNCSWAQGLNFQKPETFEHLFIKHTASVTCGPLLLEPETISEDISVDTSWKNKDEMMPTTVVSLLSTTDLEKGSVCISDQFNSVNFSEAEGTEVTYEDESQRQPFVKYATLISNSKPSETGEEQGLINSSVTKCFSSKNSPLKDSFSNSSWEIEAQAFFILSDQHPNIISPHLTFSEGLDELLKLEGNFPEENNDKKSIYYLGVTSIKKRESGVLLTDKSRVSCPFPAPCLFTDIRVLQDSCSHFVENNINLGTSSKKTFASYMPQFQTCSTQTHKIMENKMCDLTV

human leptin (SEQ ID NO:4) (from UniProt P41159 22-167) (ligand)
Kd [1]: 1 nM

B1: human C-reactive protein (other, UniProt P02741 19-224, looked up)
chain: QTDMSRKAFVFPKESDTSYVSLKAPLTKPLKAFTVCLHFYTELSSTRGYSIFSYATKRQDNEILIFWSKDIGYSFTVGGSEILFEVPEVTVAPVHICTSWESASGIVEFWVDGKPRVRKSLKKGYTVGAEASIILGQEQDSFGGNFEGSQSLVGDIGNVNMWDFVLSPDEINTIYLGGPFSPNVLNWRALKYEVQGEVFTKPQLWP
notes: Human SLIP-1 from the leptin column was identified as human CRP; also called human CRP; CRP
IC50 [2]: ~0.08 µg/mL
molecular ratio CRP:leptin at the IC50 [3]: 5.8 CRP:leptin (molar, CRP pentamer)
IC50 [4]: > 64 µg/mL

B2: mouse leptin (ligand, UniProt P41160 22-167, looked up)
chain: T2 chain
notes: Recombinant; also called recombinant mouse leptin; murine leptin
binding result (rat C-reactive protein): binds
